# Measured values reported in US20150166606A1 (RA PHARMACEUTICALS, published 2015).
# Numbered stars: 1 amine (or outer) side, 2 acyl side, 3 side chain; on linkers, the order of the positions; unused ones are H or OH. Bridge positions count the residues as written; N and C are the ends. Square brackets hold non-standard residues; d marks the D form. Ends that are not written are not given here. * marks the point of attachment. mXylyl = xylyl linker from dibromoxylene joining the two cysteines; 4‑BZA = 2-amino-3-(4-carbamimidoylphenyl)propanoic acid; Trp(7-aza) = N[C@@H](Cc1c[nH]c2ncccc12)C(=O)O; des‑NH2 = missing amino-terminal amine group; pXylylene = c1cc(C[*:2])ccc1C[*:1]; NMeR = CN[C@@H](CCCNC(=N)N)C(=O)O; dPhg = N[C@@H](C(=O)O)c1ccccc1; Chg = N[C@H](C(=O)O)C1CCCCC1; Phg = N[C@H](C(=O)O)c1ccccc1; Tle = CC(C)(C)[C@H](N)C(=O)O; Tranexamic = tranexamic acid; oXylyl = ortho-xylyl linker; NMeC = CN[C@@H](CS)C(=O)O; NMeS = CN[C@@H](CO)C(=O)O; Heptanoyl = CCCCCCC(=O)*; Ac5c = NC1(C(=O)O)CCCC1; Nva = CCC[C@H](N)C(=O)O; Thp = NC1(C(=O)O)CCOCC1; Ac4c = NC1(C(=O)O)CCC1; Ac3c = NC1(C(=O)O)CC1; Aib = CC(C)(N)C(=O)O; AEA = NCCOCC(=O)O; Mpa = O=C(O)CCS
# B1: R2084 (peptide)
# peptide: {des‑NH2}-C[Phg]CR[Tle]-NH2
# modifications: linker 1-3 via pXylylene; not fully specified (residue 1); printed as [pXylyl(1,5)](des-NH2)C-Phg-CR-Tbg-NH2
# B2: R2090 (peptide)
# peptide: {des‑NH2}-C[Tranexamic][Phg]CR[Tle]-NH2
# modifications: linker 1-4 via mXylyl (inferred); not fully specified; printed as [mXylyl(1,5)](des-NH2)C-Tranexamic-Phg-CR-Tbg-NH2
# B3: R2083 (peptide)
# peptide: {des‑NH2}-C[Phg]CR[Tle]-NH2
# modifications: linker 1-3 via oXylyl; not fully specified (residue 1); printed as [oXylyl(1,5)](des-NH2)C-Phg-CR-Tbg-NH2
# B4: R2081 (peptide)
# peptide: {des‑NH2}-C[Tranexamic][dPhg]CR[Tle]-NH2
# modifications: linker 1-4 via mXylyl (inferred); not fully specified; printed as [mXylyl(1,5)](des-NH2)C-Tranexamic-(D)Phg-CR-Tbg-NH2
# B5: R2156 (peptide)
# peptide: [Mpa]SICRV-NH2
# modifications: linker 1-4 via pXylylene
# SMILES: CC[C@H](C)[C@@H]1NC(=O)[C@H](CO)NC(=O)CCSCc2ccc(cc2)CSC[C@@H](C(=O)N[C@@H](CCCNC(=N)N)C(=O)N[C@H](C(N)=O)C(C)C)NC1=O
# Target: T1, Activated human plasma kallikrein (Enzyme Research Laboratories, HPKa 1303) (human, UniProt P03952 20-638)
# Test: cell-based or functional assay
# T1 sequence (P03952 20-638 limits assumed): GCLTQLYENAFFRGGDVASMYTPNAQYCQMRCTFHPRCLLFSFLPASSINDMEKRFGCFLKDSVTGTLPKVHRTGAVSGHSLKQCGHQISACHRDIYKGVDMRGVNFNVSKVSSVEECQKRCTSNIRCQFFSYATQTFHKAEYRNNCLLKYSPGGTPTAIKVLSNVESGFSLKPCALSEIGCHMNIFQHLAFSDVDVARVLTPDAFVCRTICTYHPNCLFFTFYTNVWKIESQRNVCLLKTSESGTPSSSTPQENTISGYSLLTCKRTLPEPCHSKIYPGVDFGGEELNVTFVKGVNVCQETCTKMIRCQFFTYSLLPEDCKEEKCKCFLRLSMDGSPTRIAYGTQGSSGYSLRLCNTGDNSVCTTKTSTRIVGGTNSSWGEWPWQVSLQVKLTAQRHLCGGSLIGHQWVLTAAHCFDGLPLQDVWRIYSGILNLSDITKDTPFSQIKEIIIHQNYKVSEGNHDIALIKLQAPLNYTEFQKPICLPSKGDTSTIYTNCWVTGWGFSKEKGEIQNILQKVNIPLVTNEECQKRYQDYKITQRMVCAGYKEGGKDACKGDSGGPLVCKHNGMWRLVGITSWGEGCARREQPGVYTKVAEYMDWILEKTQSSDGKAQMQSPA
row,Binder,Avg. IC50
1,B1,1800 nM
2,[Nva]CESICRV-NH2 (linker 2-6 via mXylyl) [R2009],8.6 nM
3,MCEYICRV-NH2 (linker 2-6 via mXylyl) [R2089],61.9 nM
4,{des‑NH2}-C[Thp]A[Chg]CR[Tle]-NH2 (linker 1-5 via mXylyl) [R2100],1.5 nM
5,MCESNCRV-NH2 (linker 2-6 via mXylyl) [R2088],2040 nM
6,[Mpa][code a]S[Chg]CR[Tle]-NH2 (linker 1-5 via mXylyl) [R2082],25.8 nM
7,CESICRV-NH2 (linker 1-5 via mXylyl) [R2085],21.9 nM
8,{des‑NH2}-C[Thp]A[dPhg]CR[Tle]-NH2 (linker 1-5 via mXylyl) [R2094],46.9 nM
9,B2,1750 nM
10,{des‑NH2}-C[Ac4c]A[dPhg]CR[Tle]-NH2 (linker 1-5 via mXylyl) [R2096],748 nM
11,MCESICRELRYSE-NH2 (linker 2-6 via mXylyl) [R2086],8930 nM
12,MCESI[NMeC]RV-NH2 (linker 2-6 via mXylyl) [R2101],12700 nM
13,{des‑NH2}-C[Aib]A[dPhg]CR[Tle]LRYSE-NH2 (linker 1-5 via mXylyl) [R2098],22.4 nM
14,{des‑NH2}-C[Thp]A[Phg]CR[Tle]-NH2 (linker 1-5 via mXylyl) [R2095],1.6 nM
15,{des‑NH2}-C[Ac3c]A[Phg]CR[Tle]-NH2 (linker 1-5 via mXylyl) [R2093],10.3 nM
16,B3,> 8900 nM
17,{des‑NH2}-C[Ac3c]A[dPhg]CR[Tle]-NH2 (linker 1-5 via mXylyl) [R2092],3960 nM
18,{des‑NH2}-C[Ac4c]A[Phg]CR[Tle]-NH2 (linker 1-5 via mXylyl) [R2097],2 nM
19,{des‑NH2}-C[Aib]A[Chg]CR[Tle]-NH2 (linker 1-5 via mXylyl) [R2091],3.2 nM
20,{des‑NH2}-C[Aib]A[Phg]CR[Tle]LRYSE-NH2 (linker 1-5 via mXylyl) [R2099],0.1 nM
21,B4,> 10000 nM
22,MCESICRE-NH2 (linker 2-6 via mXylyl) [R2087],> 16600 nM

# Target: T1, Activated human plasma kallikrein …
# Test: cell-based or functional assay
# Remark: another data set of the same source
row,Binder,Avg. IC50
1,"[Mpa][Aib]A[Chg]CR[Tle]LRYC-NH2 (linker 1-5-11 via 1,3,5‑Xylyl) [R2158]",2340 nM
2,{des‑NH2}-CP[Chg]CR[Tle]-NH2 (linker 1-4 via mXylyl) [R2167],10.7 nM
3,MCESIC[NMeR]V-NH2 (linker 2-6 via mXylyl) [R2163],1960 nM
4,{des‑NH2}-C[Thp]A[Chg]C[Trp(7-aza)][Tle]-NH2 (linker 1-5 via mXylyl) [R2147],> 2190 nM
5,Heptanoyl-C[dA][NMeS][Chg]CR[Tle]-NH2 (linker 1-5 via mXylyl) [R2148],28.8 nM
6,B5,1530 nM
7,{des‑NH2}-C[AEA][Phg]CR[Tle]-NH2 (linker 1-4 via mXylyl) [R2151],1940 nM
8,{des‑NH2}-CS[Chg]CR[Tle]-NH2 (linker 1-4 via mXylyl) [R2164],10.1 nM
9,[Mpa][Thp]A[Chg]C[4‑BZA]V-NH2 (linker 1-5 via mXylyl) [R2166],310 nM
10,[Mpa][Ac5c][Chg]CR[Tle]-NH2 (linker 1-4 via mXylyl) [R2168],11.3 nM
11,[Mpa][Ac5c]A[Chg]CR[Tle]-NH2 (linker 1-5 via mXylyl) [R2169],1.9 nM
12,{des‑NH2}-C[Aib]A[Chg]CR-OH (linker 1-5 via mXylyl) [R2153],> 8880 nM
13,{des‑NH2}-C[Ac5c]A[dPhg]CR[Tle]-NH2 (linker 1-5 via mXylyl) [R2149],177 nM
14,[Mpa]SICRV-NH2 (linker 1-4 via mXylyl) [R2155],66.3 nM
15,{des‑NH2}-C[Ac5c]A[Phg]CR[Tle]-NH2 (linker 1-5 via mXylyl) [R2150],0.764 nM
16,Ac-[Chg]CRVAC-NH2 (linker 2-6 via mXylyl) [R2159],> 20100 nM
17,[Mpa]SICRV-NH2 (linker 1-4 via oXylyl) [R2161],2230 nM
18,[Mpa][Ac5c]A[Chg]CR[Tle]LRY-NH2 (linker 1-5 via mXylyl) [R2170],2.1 nM
19,"[Mpa][Aib]A[Chg]CR-{2‑amino‑3,3‑dimethylbutan‑1‑ol} (linker 1-5 via mXylyl) [R2162]",466 nM
20,Ac-[Chg]CRVPC-NH2 (linker 2-6 via mXylyl) [R2160],> 100000 nM
21,"[Mpa][Aib]A[Chg]CR[Tle]PC-NH2 (linker 1-5-9 via 1,3,5‑Xylyl) [R2157]",> 14300 nM
22,"XSICRV (not fully specified; [mXylyl(1,4)](2-SAc)-SICRV-NH2) [R2154]",> 7930 nM
23,"{des‑NH2}-C[Aib]A[Chg]CR-{3,3‑dimethylbutan‑2‑amine} (linker 1-5 via mXylyl) [R2152]",319 nM
24,{des‑NH2}-C[NMeS][Chg]CR[Tle]-NH2 (linker 1-4 via mXylyl) [R2165],82.1 nM
